According to a protein production outcome set (Wang et al. 2014):

Assay: label from the status in PepcDB records
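Also: failed if final PepcDB status was selected cloned or expressed and not failed if soluble or beyond.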

For “MISFSVMALVFGVVFLAELPDKTALAGLVLGTRYRASYVFAGVAAAFALHVALAVAAGSVLTLLPQQIVHALTGVLFLGGAAVLLMKKGEGEEEIRKPENQSFWKVSSAGFMLILVAEFGDLTQIMTANLAARYDDPLSVGLGAVLALWAVAGLGIVGGRALMKRVPLRLITKVAALLMLALGAWSLYEAVAG”, the protein production was “failed”.

In the case of “MSTFAFNLGGEFDKSFLSTPKAYGDVIKALPQNASKIELDYASVYDYDTDGCYATAAISPDGTTNPGLSLGGSPESVCRDVNRLENSNTYSRAKSNNGWTAIMYASYFEKDQSTSGPVALGHRHDWEHTIVWVKDSQVQYVTYSAHGNWYTNPRSNVRFDGNHPKIVYHKDGGSTHAFRLANSNDEPPENYYHQWLQLPMVGWNGYPSPNIREKLMTTNFGDATLEIKDGRFEKALANAKPPINFDPYAPELEDGGTYQIVSILNNSSVVDLNQADGNVQLWQNGNANNQKWKLVYDSNKSAYQIKNIANQNLVLTWNNLNGSNNVVATTNQNKEEQYWIPTEAGNGYYYVRNKKDQNKVLDVSGYGTANGTNVTVYNFHGGNNQTFQLSNVTGTLTREVESLYKAQPGQTSRSSNNFSLEHLAAGTKVRVVLEGAGATSLSFKIARDKSGTDPVIWSNVRDGSILTIPSGDDRKNLYIAGPPSGYTSNGTFKVKFYALPN”, the protein production was “failed”.

In the case of “MKYDVVVVGSGVAGPIVARDVAKAGFSVLLVDKKPAIGTPKQCAEGINVNVFKEFDIPYDKRFINREIYGARIYSPSGYTAELRYDKVSGVILERKVFDKMLAYYAAKAGADVWARTEVIDLLRKEGKIMGVKAKHEGELVEIEAKIIVAADGVESTVARLAGINTYAPPHEFDSAYEYEMIIEGYDPDLIHLWFGNEIAPRGYVWVFPKDEDRANVGIGINSDNEKTAKYYLDKWLKENNIPTKKILEINVGLVPVGGFVRELVKENVAVVGDAARQVNPVHGGGMYEAMKAANILAKWIVKALEEENLELLKNYTKEWWEVEGPKMERLLKLRRAMEKLTDEDIDVFVQLLGGTDLEKLAGGNYFEVVKALMKHPKVLMSKRRLEILKALL”, the protein production was “not failed”.

In the case of “MKPTLFLLAAGMGSRYGGLKQLDGLGPNGETIMDYSIYDAINAGFGKLVFVIRKDFEQDFREKIISKYEGHIPCELVFQSIDDLPEGFTCPADRTKPWGTNHAVMMGADVISEPFAVINCDDFYGRDSFQVMGKFLSALPENSKNVYSMVGFRVGNTLSESGTVSRGICSTDANNLLTSVVERTKIQRLDGEVKYIDDNGEWTATPDTTPVSMNFWGFTPDYFAYSEEFFKTFLSDPKNMENLKSEFFIPLMVDKLINDGTATVEVLDTTSKWFGVTYPEDRQSVVDKIQALVDAGEYPAKLFLEHHHHHH”, the protein production was “failed”.

For “MNLFVLLFVFVFGIIGSYSSKFSEKNLFWLFVIVLAIIIGGRSISVPDTDQYLEFYQLTLSSSILDIPLYSYEIGFQLLTKILKLITNGSSFFYFGIIVLINSYFLFKSFSCFTDQSYPSKKSSGTLINQIKLQEFLLLYFSYWGLYYTGIVLRAGIAMSILIYLSTLLCSPYISLKKWSAIFLLAIISCSFHITALLGIIALIIFYISKKMTMRSYLLLFLLICIILFGKVSFWIVDMLDRNMPMIFSLIEDTDFAKLQAYSNIDASIKISFRFLFCLLIGLFFIICKRMPLYYYKYLNVYIVGLFLGALFSAIEAFSRIMDFFVIYSFILISMRLSTINSFKIRFSIMFSIVLIQLLFVYRIIIGL”, the protein production was “failed”.

In the case of “MDMKAPIKVYMTKKLLGVKPSTSVQEASRLMMEFDVGSLVVINDDGNVVGFFTKSDIIRRVIVPGLPYDIPVERIMTRNLITANVNTPLGEVLRKMAEHRIKHILIEEEGKIVGIFTLSDLLEASRRRLETAISAE”, the protein production was “not failed”.

With “MRTLVAPTHAPKRRMLLALLATPALALAQPAWTQQPPPVKLDVPYVPTPDDAVARMLEMADVTAQDTVIDLGSGDGRIAIAAVRDRGARSAMGVDIDPERIAEARANARKAGLADRVTFVQQDLFDTDISKATVLTMYLLPDVNLKLRPRILNSLAPGTRVVSHAFTMGEWDSDRYELVDGRSLYLWVVPAHAAGDWQVEDPAGPFTLSVRQDFQKVTASAQRQGERLGVAEAALRGTDLRFTVDAGSGPRTYVGRIQGDRMTAVQAPGNESGWRATRRAP” the protein production was “failed”.

In the case of “MLRIYAPASSANISVGFDTLGAAISPIDGSLLGDVVQIESISTGFELESAGYFVRKLPKEPQKNIVYQAYVLFSEQLKLRGANVKPLRLTLEKNMPIGSGLGSSACSIVAALVALNQFHNEPFSKMELLEMMGELEGRISGSIHYDNVAPCYLGGVQFMVQS”, the protein production was “failed”.

With “MVNPAQARQLDKIRKVNYASNTFELIAKEWLQMKDWAEITKTRRLDMLERVVFPAIGKLPVREITPHHILKILQETAKRGAPTVAAEARRTISSVFELAVATLRADSDPVWPVRKALPALEHHHHHH” the protein production was “failed”.

For “MANEATQELFQVLDNTAIILQNELEISYLEAVYETGENLFQKEVLQKEELSSEKQLKLQESYESIELENFSNEEIRKGLQLALLKGMKHGIQVNHQMTPDSIGFIVAYLLEKVIQKKKNISILDPACGTANLLTTVINQLELKGDVDVHASGVDVDDLLISLALVGADLQRQKMTLLHQDGLANLLVDPVDVVISDLPVGYYPDDENAKTFELCREEGHSFAHFLFIEQGMRYTKPGGYLFFLVPDAMFGTSDFAKVDKFIKKNGHIEGIIKLPETLFKSEQARKSILILRKADVNVKPPKEVLLANLSSLTDPSVTAPILAEIENWFKSKQ”, the protein production was “not failed”.

With “MLGAAPENCTVNELNPDRANQLRSQGFTVTEQDATAYLPNQLYDVVIMNPPFGRVKGKRFRLAGEMGTTSQIDQAIALHSLQAMKDDGRAVLILG” the protein production was “failed”.

For “ISCSDPNPLDSYTRVPFEKTETDDGNGDGDGDGAGGLFEKGNGTDSKPYMIMNATQIRNMRSVLKSGMKVYFQLGADIDMAGIDDWQSLNGSGDFPYEIDFDGDSHVIKNFKCSAGDYPSFFGVLCGDCRNVGFVNASVSSARQGIGIITGYLGLKDKGNGNKTGRIVNCYTTGEVIGSGAAGGIAGVLANSYDGQESYIKNCYSNATVSDRAASGGKAGGIAGRKVGVGGFIENCYAYGAVSATKGGVGGILGQIDKSCDIAIKNSAAWSNLTGVDASSTVGRIVGVSASLGSYENCYACESIVLKVNEKTITASDESSATGTTFHGVAKSAEELGNIIVAWNPNLWKKGTNGYPIFQWSE”, the protein production was “not failed”.

In the case of “MATVERAMMLKTMRKHGVTLALFAAGSTGLTAAINELTKSTIDQQAALQQKALFDQVLPADRYNNDLLKSCYLVSAPALGKGQHKVWIAKNNDRPIGAVMEATAPDGYSGAIQLLVAADFSGTVLGTRVTEHHETPGLGDKIELRLSDWITHFAGKVIHGQGDSHWAVKKDGGDFDQFTGATITPRAVVNAVKRAGLYAQTLPAQLPEFTACGE”, the protein production was “failed”.

For “MKIQDLLRKDIMILDLQAISKEVAIDEMITKLVEKDIVHDFDVFKKSIMTREEQTSTGLGDGIAMPHSKNIVVDKPAVLFAKSNKGVDYKALDGQPTDLFFMIAAPQGANDTHLAALAELSQYLLKDGFADKLRAAATPEAVIAVFDEASTAKEEV”, the protein production was “failed”.

In the case of “MFAQLVMGPAGSGKSTYCHALQQHGEIVGQLVHVVNLDPAAERFEYKPVADIRDLITVTDVAEELSLGPNGSLVYCMEYLLEDQDWLEQVLSETAEDDYLVFDMPGQIELYTHFECVRQFVYVLQSQFSMRVCSIFLLDAQFLADASKFFAGSLTAMAAMLHLGLPHLNVLSKADLLRHRIEHRDNTLEPLSSDAEAPNSDEALDEFLERFLNPDIQSLVSELSEQMDTRYRALNERIGALLEDYAIVQFVPYSATDEDSIGELLLRANLLLQYDDDRDVRIHPELD”, the protein production was “failed”.

For “MPNFKSKKIKEINLPYSKDDVEFLWLAKNDNVSLIYTKVQEESFFLQIKKAQNGFVIKGDKHTKPSKIGYLQKALKIFKEGFCEDIINEAFGLKNNALIEKTPFIVDNFDELLSRLQGKIYIEIGFGSGRHLLYQAKENPNVLILGVEIYNPALTQVAKLAKAQNVNNILLIQSDARLLLSVLKSKSVEKIFLHFPVPWDKKPHRRVIGKDFCKECARVLVQNGRFELRTDSFEYFNFTLEQFLTFPAPKFSLRKNENLEISSKYEDRWKKQEKNIYDLWVWNFNQECKNYELNEFNLSSVEFSKEDLKKIEQNFKNITIKKDDFFLHFESIYKQDENLLLKVAFGAFNKPEHCYLHLDKTIDFAFKEPFKIQENIKAINELKEILKVQFKI”, the protein production was “failed”.

For “MTNDKPFVDLRQYDQSWFDRGRSAWYILLWWLVQAIAFPLTPHFSSNIRCWILRLFGARIGKGVVVRPTARFTFPWKVTIGDYSWVGDDVVFYSLDEIHIGQHCVISQKSYLCTGSHDIQDPTFRLKVAGITIGNGAWVATDCFIAPGVQIGANAVIGARSSVFTSMPTGQVCWGSPCRPQHPRLKE”, the protein production was “failed”.

In the case of “MPTTKQLKDTELPLNFFEHSSLETIELFIQHLTEAMILVNANGFIRSCNQRSAELLDCPQVSLKGQDWRNFLTEHHQARYDNLLSHDVQLGTNCGQPVQHPAQETTLICASGKAKDVELSISYIPGHEPMFVMVMHDLTHHKAELEHHHHHH”, the protein production was “not failed”.

For “MSLNLTIGTSKFNPPFEVWSGNNSSLYGFDIDLMQEICRRLHATCTFEAYIFDDLFPALKNREVDLVIASMIITDERKKHFIFSLPYMESNSQYITTVDSKISTFDDLHGKKIGVRKGTPYARQVLSENRNNQVIFYELIQDMLLGLSNNQVDASLMDYEAAKYWMASEPYAYKLIGKKYKLIGKKISIGEGYSIMANPDQFVLIKKINKILLEMEADGTYLRLYSEYFEGHHHHHH”, the protein production was “not failed”.

For “MSVDIVHLADSELGKIVALLATSITIVPLFKRLGLGSVLGYLVAGCLIGPSVLGLFQNPQSIVHMAELGVVMFLFIIGLEMHPELLWSMRKAIFGRGFLQVLTCGTLLTFAGIHLIGLTTAVAFVVGAGFTLSSTAIVMQVLEDKGISSAPKGQRIVSTLLFEDLAIVPLLASMTFLAPSTEGATTGINSAAISIAVIGIIILVASSKWIMNPLFRMISKAKVREMMTAAALLVVLGAALLMELSGLSMAMGAFVAGVMLSESSFRHQLEADIEPFRGLLLGLFFMGVGMSLDLKFVFDDLFLLLSLVVILVLGKAISVYVIGLLTLLSHREALMRMSIMSHGGEFAFVLFSAAAAVGILDEDQQATFTAAVIISMLLSPLVVLMVQRIMTRKAKPEAPSMAGIEVAEDLENSVIVIGFGRFSQIVCQILLARGITVTVIDANTDRIRAAARFGFKVYYGDGTRLDVLRASGLAKADCVVLGINDPTRSASIVEQIKHEFPLMPIFARTYDRYSAIQLTKLHVDFQIRETFESALVLSKATMMKLGIDEVEALEVIESVRVLDKERFKEELIYGTSAELIRKYFTPKPLVKPQQPAEALNEYAAEILAETDESQHCQDNLNKKADV”, the protein production was “failed”.

For “MLKKLAGALRTLMSVPADNPRLLEAQYVALSRQLPLMYFVLLVNTWALAFTHRETAPVWLTLLVPVLLTVICGIRARKWLLTVNRPPPAAATILATLRGTNSLAGVIAAGFAAWSLSLYPYGGPYAQAHVAFFMGITVIVCIFCMMHLRPAALTTAVVVNTAFVIFFASTHNLIFIATAVNIVLVSIGMLIILHHQYRDFTSLVDVQVRTEQLSNENLLLANKDSLTGLPNRRQFFQTLDAAMSEALALRSKLAVGVLDLDGFKPVNDLYGHRTGDRLLMLVAERLNSVASNTVHVSRLGGDEFALVIKGDISNEALLALGKHLCDLMHESFELSDMPIQIGATLGMATFPASADNATQLFEFADYALYQGKNHNPGTTCLFSASHREQLHTDGVTEQALRRANLETEFHVMFQPIIESCTCETVAFEALARWNSPELGAVSPAHFIPIAERIGMINKLTAPLLTHALQMALSWPAPIRLSFNLSAHDCATWESVSTIVEIIENSGFDASRLDLEITETAVMQDIAQVQQAIAQFRQLGCGISLDDFGTGFSSLSQLHALALTKLKIDRSFVTGVHDNPASYKIVKSLVALSLDMSLGCVIEGVETQDELNALTSLGCTMVQGYFYSPPISFAETLAWLETPDHERAFGYAAACRI”, the protein production was “failed”.

In the case of “MSKIFNEELAVIEAAAIAYLTAFNRADIPAVIATYTDDGVLMGPGRPAAVGKDELAEVYLSVFETVGFDMAYEIKEVVQTSADWAFVRSATEGTETNKATGVVTPAAYQELFLLRKSATGSWQTARYCTSKISP”, the protein production was “not failed”.
